Experiment [1] concerns the target T1, CEACAM-5 (UniProt P06731 35-702, limits assumed).
T1 sequence (looked up): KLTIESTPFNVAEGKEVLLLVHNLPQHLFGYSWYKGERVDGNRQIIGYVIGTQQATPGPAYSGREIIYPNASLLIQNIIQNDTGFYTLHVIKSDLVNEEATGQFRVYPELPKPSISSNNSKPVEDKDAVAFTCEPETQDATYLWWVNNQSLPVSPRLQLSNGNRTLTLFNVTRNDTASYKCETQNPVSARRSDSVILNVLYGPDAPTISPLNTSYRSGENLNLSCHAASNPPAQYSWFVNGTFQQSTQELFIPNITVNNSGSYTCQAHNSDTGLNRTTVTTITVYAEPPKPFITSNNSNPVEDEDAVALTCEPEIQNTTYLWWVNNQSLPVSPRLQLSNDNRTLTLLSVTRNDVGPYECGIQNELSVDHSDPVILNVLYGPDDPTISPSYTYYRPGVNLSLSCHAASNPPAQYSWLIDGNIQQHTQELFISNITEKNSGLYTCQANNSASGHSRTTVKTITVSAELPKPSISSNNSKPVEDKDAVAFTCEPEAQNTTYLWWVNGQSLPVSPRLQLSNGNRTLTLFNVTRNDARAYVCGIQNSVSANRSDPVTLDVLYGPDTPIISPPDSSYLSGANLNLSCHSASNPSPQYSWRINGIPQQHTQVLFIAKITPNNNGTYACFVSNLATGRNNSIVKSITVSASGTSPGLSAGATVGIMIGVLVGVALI
Briefly: cell-based or functional assay.

For experiment [2], the target named is T1, CEACAM-5. Briefly: cell-based or functional assay. The source holds these as a separate data set.

Read-outs that look alike come from different tables or passages of the source.

B1: ARA-20-RKAA-PABC-MMAE (antibody, human IgG1, kappa, V domains shown)
VH: EVQLVESGGGVVQPGRSLRLSCSASGFDFTTYWMSWVRQAPGKGLEWIGEIHPDSSTINYAPSLKDRFTISRDNAKNTLFLQMDSLRPEDTGVYFCASLYFGFPWFAYWGQGTPVTVSS
VL: DIQLTQSPSSLSASVGDRVTITCKASQDVGTSVAWYQQKPGKAPKLLIYWTSTRHTGVPSRFSGSGSGTDFTFTISSLQPEDIATYYCQQYSLYRSFGQGTKVEIKR
modifications: linker-payload RKAA-PABC-MMAE (FIG. 6) conjugated by MTG to the native, glycosylated antibody; conjugated residue not stated in the example
As for B1, the “IC50 (nM), cytotoxicity on NCI-H2110 cells, CellTiterGlo viability, 96 hours” value (“IC50 (nM), cytotoxicity” for short) with CEACAM-5 [1] was determined as 30.2 nM.

B2: ARA-20-FA-PEG24-RKAA-PABC-MMAE (antibody, human IgG1, kappa, V domains shown)
VH: B1 VH
VL: B1 VL
modifications: linker-payload FA-PEG24-RKAA-PABC-MMAE (FIG. 3) conjugated by MTG to the native, glycosylated antibody; conjugated residue not stated in the example
With B2, the “IC50 (nM), cytotoxicity” value with CEACAM-5 [1] is 5.93 nM.

B3: ARA-20-FA-PEG12-RKAA-PABC-MMAE (antibody, human IgG1, kappa, V domains shown)
VH: B1 VH
VL: B1 VL
modifications: linker-payload FA-PEG12-RKAA-PABC-MMAE (FIG. 4) conjugated by MTG to the native, glycosylated antibody; conjugated residue not stated in the example
In the case of B3, the “IC50 (nM), cytotoxicity” value with CEACAM-5 [1] turned out to be 4.68 nM.

B4: ARA-20-FA-PEG12-ARK-PABC-MMAE (antibody, human IgG1, kappa, V domains shown)
VH: B1 VH
VL: B1 VL
modifications: linker-payload FA-PEG12-ARK-PABC-MMAE (FIG. 5) conjugated by MTG to the native, glycosylated antibody; conjugated residue not stated in the example
For B4, in the experiment with CEACAM-5 [2], the “IC50 (nM), cytotoxicity” value was 27.8 nM.

B5: ARA-20-ARK-PABC-MMAE (antibody, human IgG1, kappa, V domains shown)
VH: B1 VH
VL: B1 VL
modifications: linker-payload ARK-PABC-MMAE conjugated by MTG to the native, glycosylated antibody; conjugated residue not stated in the example
Turning to B5, in the experiment with CEACAM-5 [2], the “IC50 (nM), cytotoxicity” value was determined as 58 nM.
